Measurements from US5969097A, “Human guanylin” (G. D. Searle & Co., priority 1992, dated 1999).

Biological target: T1, intestinal guanylate cyclase (Homo sapiens, UniProt P25092)
T1 construct: host or cells: T84 human colon carcinoma cells
Experiment: T84 cell bioassay: intracellular cyclic GMP levels
Type: cell-based
Settings: compared with STa; T84 cells, FIG. 3a
Protocol: a) Activity in the T84 cell bioassay. As determined by analysis of the effects of the peptides on intracellular cyclic GMP levels.
Cell Culture: A cultured human colon carcinoma cell line (T84) was obtained from the American Type Culture Collection (Rockville, Md.) at passage 52. Cells were grown to confluency in 24-well culture plates with a 1:1 mixture of Ham's F12 medium and Dulbecco's modified Eagle's medium (DMEM), supplemented with 10% fetal calf serum, 100 IU/ml penicillin, and 100 μg/ml streptomycin. Cells were used at passages 54-60.
Cyclic GMP determination: Monolayers of T84 cells in 24-well plates were washed twice with 1 ml/well DMEM, then incubated at 37 C. for 10 min with 0.5 ml DMEM containing 1 mM isobutylmethylxanthine (IBMX), a cyclic nucleotide phosphodiesterase inhibitor. Agents and fractions were then added for the indicated time as described in the results section. The media was then aspirated and the reaction terminated by the addition of ice cold 0.5 ml of 0.1N HCl. Aliquots were then evaporated to dryness under nitrogen and then resuspended in 5 mM sodium acetate buffer, pH 6.4. The samples were subsequently measured for cyclic GMP by RIA as described by Steiner et al. (16).

T1 sequence (P25092 24-1073): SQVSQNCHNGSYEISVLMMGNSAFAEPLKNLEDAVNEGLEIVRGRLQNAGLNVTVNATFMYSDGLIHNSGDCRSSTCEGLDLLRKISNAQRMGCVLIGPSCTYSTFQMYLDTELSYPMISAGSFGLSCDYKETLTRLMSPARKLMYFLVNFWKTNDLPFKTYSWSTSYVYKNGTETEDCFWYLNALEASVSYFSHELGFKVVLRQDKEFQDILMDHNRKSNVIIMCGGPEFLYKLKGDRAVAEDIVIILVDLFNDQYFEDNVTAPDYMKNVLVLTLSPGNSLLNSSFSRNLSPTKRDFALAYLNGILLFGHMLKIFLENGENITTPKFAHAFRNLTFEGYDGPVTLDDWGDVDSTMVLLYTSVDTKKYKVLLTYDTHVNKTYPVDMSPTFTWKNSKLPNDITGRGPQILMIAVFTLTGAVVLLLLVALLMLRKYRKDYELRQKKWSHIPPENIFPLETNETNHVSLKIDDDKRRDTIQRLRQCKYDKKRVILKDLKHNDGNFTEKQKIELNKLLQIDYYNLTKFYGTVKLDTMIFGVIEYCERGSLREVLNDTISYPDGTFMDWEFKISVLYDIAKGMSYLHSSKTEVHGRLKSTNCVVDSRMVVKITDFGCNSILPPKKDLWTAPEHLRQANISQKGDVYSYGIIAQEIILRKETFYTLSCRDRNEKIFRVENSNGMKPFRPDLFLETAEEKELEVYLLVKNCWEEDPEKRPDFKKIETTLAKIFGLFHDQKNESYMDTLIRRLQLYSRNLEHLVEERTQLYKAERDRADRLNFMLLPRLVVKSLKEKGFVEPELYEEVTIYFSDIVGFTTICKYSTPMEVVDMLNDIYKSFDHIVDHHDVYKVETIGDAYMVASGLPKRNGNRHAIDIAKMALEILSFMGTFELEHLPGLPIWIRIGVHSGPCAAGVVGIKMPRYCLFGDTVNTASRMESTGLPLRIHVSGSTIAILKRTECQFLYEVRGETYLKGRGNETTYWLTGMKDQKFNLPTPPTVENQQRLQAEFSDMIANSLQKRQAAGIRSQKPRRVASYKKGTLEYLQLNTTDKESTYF

B1: rat guanylin: 15 amino acid rat guanylin peptide; shares 14 of 15 amino acids with human guanylin (peptide)
peptide: MNAWLLSVLCLLGALAVLVEGVTVQDGDLSFPLESVKQLKHLREVQEPTLMSHKKFALRLPKPVAPELCSQSAFPEALRPLCEKPNAEEILQRLEAIAQDPNTCEICAYAACTGC
  relative potency to activate intestinal guanylate cyclase (T84 cell cyclic GMP): about one order of magnitude less potent than STa
